In patent US20060040325A1:

How the values were obtained:
[1] = molecular target: FcγRIIIA (soluble receptor used as analyte in the BIAcore runs) (human) (UniProt P08637); experiment: SPR (BIAcore 3000), IgG amine-coupled to CM5, soluble FcγRIIIA injected; Scatchard plot of Req; Run 1
[2] = molecular target: FcγRIIIA (soluble receptor used as analyte in the BIAcore runs) (human) (UniProt P08637); experiment: SPR (BIAcore 3000), IgG amine-coupled to CM5, soluble FcγRIIIA injected; Scatchard plot of Req; Run 2
[3] = molecular target: FcγRIIIA (soluble receptor used as analyte in the BIAcore runs) (human) (UniProt P08637); experiment: SPR (BIAcore 3000), IgG amine-coupled to CM5, soluble FcγRIIIA injected; steady-state isotherm; Run 1
[4] = molecular target: FcγRIIIA (soluble receptor used as analyte in the BIAcore runs) (human) (UniProt P08637); experiment: SPR (BIAcore 3000), IgG amine-coupled to CM5, soluble FcγRIIIA injected; steady-state isotherm; Run 2
[5] = molecular target: FcγRIIB-streptavidin fusion protein (tetramer) (human; Streptomyces avidinii) (UniProt P31994); experiment: ELISA: antibody at varied concentration captured on protein A/G, FcγRIIB-streptavidin, biotin-HRP, OD at 450 nm
Sequence of FcγRIIB-streptavidin fusion protein (tetramer) (human; Streptomyces avidinii) (P31994 43-217 limits assumed): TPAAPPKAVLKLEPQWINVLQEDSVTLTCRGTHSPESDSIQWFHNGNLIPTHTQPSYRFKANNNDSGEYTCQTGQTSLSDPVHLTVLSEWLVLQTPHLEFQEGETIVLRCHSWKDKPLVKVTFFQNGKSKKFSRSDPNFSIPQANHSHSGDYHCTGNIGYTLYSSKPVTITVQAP

Sequence of FcγRIIIA (soluble receptor used as analyte in the BIAcore runs) (human) (P08637 17-208): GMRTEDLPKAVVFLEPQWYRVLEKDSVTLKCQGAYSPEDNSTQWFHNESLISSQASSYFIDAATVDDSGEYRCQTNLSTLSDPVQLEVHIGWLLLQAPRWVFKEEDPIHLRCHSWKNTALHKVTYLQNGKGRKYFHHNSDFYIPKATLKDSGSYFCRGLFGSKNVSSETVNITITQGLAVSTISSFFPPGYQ

Substance | Kd [1] | Kd [2] | Kd [3] | Kd [4] | EC50 (read off the curve) [5]
Vitaxin® (wild type, full length IgG1) (antibody) | 3260 nM | 7600 nM | 3470 nM | 8900 nM | 0.3 µg/mL
Vitaxin®-1M (Vitaxin® Fc variant I332E, IgG1) (antibody) | 458 nM | 1220 nM | 458 nM | 1280 nM | 0.3 µg/mL
Vitaxin®-3M (Vitaxin® Fc variant S239D/A330L/I332E, IgG1) (antibody) |  |  |  | 114 nM | 
